# B1: IFNγ: human IFNγ, modulator (10 ng/ml; Sigma Aldrich) (protein, UniProt P01579 24-161, looked up)
# Interferon gamma: QDPYVKEAENLKKYFNAGHSDVADNGTLFLGILKNWKEESDRKIMQSQIVSFYFKLFKNFKDDQSIQKSVETIKEDMNVKFFNSNKKKRDDFEKLTNYSVTDLNVQRKAIHELIQVMAELSPAAKTGKRKRSQMLFRG
# Legend:
# Assay type in all cases: cell-based, human
# BxPC3 cells = assay: PD-L1 western blot after modulators (EM and MTAs); settings: Pancreatic BxPC3, 30 minutes, 3 hours, 24 hours
# Excerpt: (§1) Cell lines were acquired from ATCC, Sigma, or DSMZ. Human non-small cell lung carcinoma (NSCLC) cell lines H292 (ATCC no. CRL-1848.), H1299 (ATCC no. CRL-5803), H520 (ATCC no. CRL-5811), CALU6 (ATCC no. HTB-56), H1975 (ATCC no. CRL-5908), H460 (ATCC no. HTB-177), H2126 (ATCC no. CCL-256), H1650 (ATCC no. CRL-5883), and H2087 (ATCC no. CRL-5922) were used for this experiment along with head and neck squamous cell carcinoma (HNSCC) cell lines BHY (DSMZ ACC 404), CAL27 (ATCC no. CRL-2095), KYSE410 (Sigma), and A253 (ATCC no. HTB-41), melanoma cell lines A375 (ATCC no. CRL-1619), COL0853 (Sigma), and MM127 (Sigma) pancreatic cancer cell lines BXPC3 (ATCC no. CRL-1687), colorectal cancer cell lines […], HCT116 (ATCC no. CCL-247EMT), and breast cancer cell lines BT549 (ATCC no. HTB-122), BT20 (ATCC no. HTB-19), and T47D (ATCC no. HTB-133). Cells were maintained in manufacturer-recommended conditions at 37° C. inside humidified 5% CO2 incubators. Sub-cultivation and harvesting for all cell lines were performed using Accutase (GIBCO Life Technologies; cat. no. A1110501) at 37° C. for 10 minutes. Cell viability was measured using trypan blue exclusion staining in conjunction with the Countess II Automated Cell Counter (Thermo Fischer Scientific; cat. no. AMQAX1000). Measurements were made in duplicate and the average number of viable cells was recorded prior to experiments.
# (§2) Enhancer Molecule and Therapies: IFNγ, (10 ng/ml; Sigma Aldrich, cat.no 11040596001), TNFα (10 ng/ml; BD Biosciences cat. no. 554618), Osimertinib (100 ng/ml; Selleckchem cat.no. S7297), Everolimus (100 ng/ml; Selleckchem cat.no S1120), GSK458 (10 ng/ml; Selleckchem cat. no. S2658), TNFb (50 ng/ml; Sigma Aldrich cat. no.), GSK795 (1,000 ng/ml; Selleckchem cat. no. S7492), IL-12 (50 ng/ml; Sigma Aldrich SRP3073), GM-CSF (50 ng/ml; Sigma Aldrich cat. no. G5035), IL-1a (1 ng/ml; Sigma Aldrich cat. no. 12778-), IL-6 (50 ng/ml; Sigma Aldrich), IL-17 (100 ng/ml; Sigma Aldrich cat. no. SRP3080), TGFb (1 ng/ml; Sigma Aldrich cat. no. T7039), and IL-10 (50 ng/ml; Sigma Aldrich cat. no. SRP3071) were administered to cell lines for various times including 30 minutes, 3 hour, and 24 hour time intervals prior to cell lysis and protein extraction.
# (§3) To determine the effects of the aforementioned molecules on the modulation of PD-L1, we selected various NSCLC, HNSCC, breast cancer, melanoma, colorectal cancer, and pancreatic cancer cell lines as examples. Other diseases or cell lines could be used readily as could more complex samples such as cells isolated from xenografts and clinical samples. Cells were plated, for three different time points (30 minutes, 3 hours, and 24 hours), inside 6-well petri dishes with 2 mL of appropriate medium. Plates were incubated for 24 hours in 5% CO2 incubators at 37° C. After 24 hours, each 6-well plate was washed with PBS (Gibco Life Technologies, cat. no. 10010023) followed by fresh media being added along with each cell line's vehicle control or appropriate modulator for each specific time point, and were placed in CO2 incubators until their modulation time point was reached. Other conditions can be readily used, such as processing on automated systems such as SnapPath. At the end of each time point, while keeping plates on ice, cell lysis was conducted by aspirating culture medium from each plate, washing of each plate three times with 5 ml of cold PBS (Gibco Life Technologies, cat. no. 10010023) and culminated with the addition of cold 1× lysis buffer containing (Cell Signaling, cat. no. 9803 S) protease inhibitor cocktail (Cell Signaling, cat. no. 5871S), phosphatase inhibitor cocktail (Cell Signaling, cat. no. 5870S), and PMSF (Fisher Scientific, cat. no. ICN19538101). Plates were then placed on ice for ten minutes, swirling each plate intermittently. Aliquots of protein lysates were prepared and then stored at −80° C. until protein quantification and Western blot analysis was to be conducted. […]
# H1299 cells = assay: PD-L1 western blot after modulators (EM and MTAs); settings: NSCLC H1299, 30 minutes, 3 hours, 24 hours
# Excerpt: as §1, §2, §3
# Calu6 cells = assay: PD-L1 western blot after modulators (EM and MTAs); settings: NSCLC Calu6, 30 minutes, 3 hours, 24 hours
# Excerpt: as §1, §2, §3
# SKMES1 cells = assay: PD-L1 mRNA one step RT-qPCR, IFNγ treatment; settings: 10 ng/mL IFNγ for 24h, normalized by GAPDH
# Procedure: (§4) Additionally, the presence, abundance and ratio of different PD-L1 mRNA forms can be used to predict response. As way of example, PD-L1 mRNA were measured using primers amplifying within exon 3-4 (extracellular region of the transcribed protein that interacts with PD1). Other amplicons detecting the same or other forms can be used readily. For example, amplicons corresponding to the transmembrane and cytoplasmic tail to confirm full length plasma membrane bound protein is transcribed, or regions overlapping with either PD1 or anti-PD-L1 binding sites. Five cell lines (H460, H1299, H1650, H2126 and SKMES1) were treated with vehicle or 10 ng/mL IFNγ for 24h. More complex sample types, including cells isolated from solid tumors from preclinical and clinical cancers be used. Other time points, including those as early as 1h for IRF or 4h for PD-L1, can be readily used. RNA was isolated from the cells using an NEB kit (Cat #T2010) per the manufacturer's instructions. Isolated RNA was estimated using a NanoDrop […] and checked for its quality by checking the 260/280 ratio. RNA concentration was brought to 40 ng/uL in all the samples to take equal quantity for further steps of RT and real time PCR. One step RT-qPCR was performed using a Power SYBR Green RNA to Ct One step kit (Cat #4931198) as per the manufacturer's instructions. A 200 ng RNA template was taken for total 20 uL reaction per well in 96 well PCR microplate for Roche 480 Light cycler. The following primer pairs (Sigma) were used for PD-L1 and GAPDH and were used at a concentration in the reaction mixture of 400 nM:
# (§5) A Roche 480 Light cycler was used for performing the one step real time PCR. Data was analyzed using 2^-ΔΔCt method normalized by GAPDH for relative levels. Alternative housekeeper genes may be readily used.
# H1650 cells = assay: PD-L1 mRNA one step RT-qPCR, IFNγ treatment; settings: 10 ng/mL IFNγ for 24h, 2^-ΔΔCt normalized by GAPDH
# Procedure: as §4, §5
molecule,measurement,setting,value
B1,PD-L1 Response,BxPC3 cells,Up
same,PD-L1 Response,H1299 cells,Up
same,PD-L1 Response,Calu6 cells,Up
same,change of PD-L1 mRNA upon IFNγ exposure,SKMES1 cells,no change
same,relative increase of PD-L1 mRNA upon IFNγ exposure,H1650 cells,2.2 fold

# — patent US20220347267A1, “METHODS TO IMPROVE PATIENT RESPONSE TO IMMUNE CHECKPOINT INHIBITORS AND FUNCTIONAL TESTS TO PREDICT RESPONSE” (Biomarker Strategies, LLC, priority 2019, published 2022)
